Values quoted from earlier work as cited in article PMC2757091.

How the values were obtained:
Cerberus = Cerberus (UniProt O95813)
Noggin = Noggin (UniProt Q13253)
Chordin = Chordin (UniProt Q9H2X0)
Chain of Chordin (Q9H2X0 27-955): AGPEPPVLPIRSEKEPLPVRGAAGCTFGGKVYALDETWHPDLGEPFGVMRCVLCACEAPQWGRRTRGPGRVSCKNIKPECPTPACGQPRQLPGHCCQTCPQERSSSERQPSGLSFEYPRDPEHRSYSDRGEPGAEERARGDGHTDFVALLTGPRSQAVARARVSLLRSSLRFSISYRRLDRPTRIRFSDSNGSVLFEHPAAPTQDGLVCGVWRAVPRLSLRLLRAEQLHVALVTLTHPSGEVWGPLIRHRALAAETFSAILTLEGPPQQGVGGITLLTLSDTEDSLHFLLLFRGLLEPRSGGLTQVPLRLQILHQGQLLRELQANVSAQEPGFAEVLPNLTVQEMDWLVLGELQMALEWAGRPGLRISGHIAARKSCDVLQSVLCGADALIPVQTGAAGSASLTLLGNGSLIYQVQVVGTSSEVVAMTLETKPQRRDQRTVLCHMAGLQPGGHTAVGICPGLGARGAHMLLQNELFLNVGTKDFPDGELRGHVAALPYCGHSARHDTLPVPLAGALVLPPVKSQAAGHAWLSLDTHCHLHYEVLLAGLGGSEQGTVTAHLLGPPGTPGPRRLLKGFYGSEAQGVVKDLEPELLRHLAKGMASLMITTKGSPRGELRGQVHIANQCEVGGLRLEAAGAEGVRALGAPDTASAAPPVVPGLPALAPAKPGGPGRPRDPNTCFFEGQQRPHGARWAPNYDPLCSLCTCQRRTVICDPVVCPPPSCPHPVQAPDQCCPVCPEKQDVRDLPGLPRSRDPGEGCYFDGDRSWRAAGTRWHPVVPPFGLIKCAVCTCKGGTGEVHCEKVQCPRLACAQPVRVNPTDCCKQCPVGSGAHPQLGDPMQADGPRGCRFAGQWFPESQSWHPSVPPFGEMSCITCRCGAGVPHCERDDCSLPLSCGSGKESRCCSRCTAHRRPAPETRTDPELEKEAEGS

Chain of BMP4 (P12644 293-408): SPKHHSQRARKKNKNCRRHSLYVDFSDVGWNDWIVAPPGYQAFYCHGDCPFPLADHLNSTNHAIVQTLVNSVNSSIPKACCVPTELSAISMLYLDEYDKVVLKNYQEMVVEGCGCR
Chain of Noggin (Q13253 28-232): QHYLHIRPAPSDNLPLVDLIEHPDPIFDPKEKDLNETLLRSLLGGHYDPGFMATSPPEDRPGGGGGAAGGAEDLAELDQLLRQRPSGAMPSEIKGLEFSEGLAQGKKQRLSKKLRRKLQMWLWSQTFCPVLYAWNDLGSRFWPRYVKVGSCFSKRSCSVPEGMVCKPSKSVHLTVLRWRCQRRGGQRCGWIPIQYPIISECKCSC
Chain of Cerberus (O95813 18-267): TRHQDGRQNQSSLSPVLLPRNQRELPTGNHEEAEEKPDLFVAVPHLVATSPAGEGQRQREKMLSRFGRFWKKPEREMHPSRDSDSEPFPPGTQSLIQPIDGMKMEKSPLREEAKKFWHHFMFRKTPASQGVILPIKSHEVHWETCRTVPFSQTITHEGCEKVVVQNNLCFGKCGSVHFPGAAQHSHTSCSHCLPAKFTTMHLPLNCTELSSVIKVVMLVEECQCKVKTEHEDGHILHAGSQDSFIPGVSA

Kd (Cerberus): 600 pM
Kd (Noggin): 20 pM
Kd (Chordin): 200 pM
Substance: BMP4 (from UniProt P12644)
